Drawing on PMC10928148 (Molecular Therapy, 2024), this text covers EC50 for ten molecules.

B1: COVA2-15 IgG (antibody, V domains shown)
VH: QVQLLESGGGLVQPGGSLRLSCAASGFTFSSYAMSWVRQAPGKGLEWASAISGSGGSTYYADSVEGRFTISRDNSKNTLYLQMNSLRAEDTAVYYCAKDTGYCGDDCYIKLIRGGPDYWGQGTLVTVSS
VL: DIVMTQSPLSLPVTLGQPASISCRSSQSLVYSDGNTFLNWFQQRPGQSPRRLIYQVSNRDSGVPDRFSGSGSGTDFTLKISRVEAEDVGVYYCMQGTHWPRTFGQGTKLEIK
B2: COVA2-15 monomeric IgA2 (antibody, V domains shown)
VH: QVQLLESGGGLVQPGGSLRLSCAASGFTFSSYAMSWVRQAPGKGLEWASAISGSGGSTYYADSVEGRFTISRDNSKNTLYLQMNSLRAEDTAVYYCAKDTGYCGDDCYIKLIRGGPDYWGQGTLVTVSS
VL: DIVMTQSPLSLPVTLGQPASISCRSSQSLVYSDGNTFLNWFQQRPGQSPRRLIYQVSNRDSGVPDRFSGSGSGTDFTLKISRVEAEDVGVYYCMQGTHWPRTFGQGTKLEIK
B3: COVA2-15 secretory IgA1 (antibody, V domains shown)
VH: QVQLLESGGGLVQPGGSLRLSCAASGFTFSSYAMSWVRQAPGKGLEWASAISGSGGSTYYADSVEGRFTISRDNSKNTLYLQMNSLRAEDTAVYYCAKDTGYCGDDCYIKLIRGGPDYWGQGTLVTVSS
VL: DIVMTQSPLSLPVTLGQPASISCRSSQSLVYSDGNTFLNWFQQRPGQSPRRLIYQVSNRDSGVPDRFSGSGSGTDFTLKISRVEAEDVGVYYCMQGTHWPRTFGQGTKLEIK
B4: COVA2-15 monomeric IgA1 (antibody, V domains shown)
VH: QVQLLESGGGLVQPGGSLRLSCAASGFTFSSYAMSWVRQAPGKGLEWASAISGSGGSTYYADSVEGRFTISRDNSKNTLYLQMNSLRAEDTAVYYCAKDTGYCGDDCYIKLIRGGPDYWGQGTLVTVSS
VL: DIVMTQSPLSLPVTLGQPASISCRSSQSLVYSDGNTFLNWFQQRPGQSPRRLIYQVSNRDSGVPDRFSGSGSGTDFTLKISRVEAEDVGVYYCMQGTHWPRTFGQGTKLEIK
B5: COVA2-15 secretory IgA2 (antibody, V domains shown)
VH: QVQLLESGGGLVQPGGSLRLSCAASGFTFSSYAMSWVRQAPGKGLEWASAISGSGGSTYYADSVEGRFTISRDNSKNTLYLQMNSLRAEDTAVYYCAKDTGYCGDDCYIKLIRGGPDYWGQGTLVTVSS
VL: DIVMTQSPLSLPVTLGQPASISCRSSQSLVYSDGNTFLNWFQQRPGQSPRRLIYQVSNRDSGVPDRFSGSGSGTDFTLKISRVEAEDVGVYYCMQGTHWPRTFGQGTKLEIK
B6: COVA2-15 IgG (antibody, V domains shown)
VH: QVQLLESGGGLVQPGGSLRLSCAASGFTFSSYAMSWVRQAPGKGLEWASAISGSGGSTYYADSVEGRFTISRDNSKNTLYLQMNSLRAEDTAVYYCAKDTGYCGDDCYIKLIRGGPDYWGQGTLVTVSS
VL: DIVMTQSPLSLPVTLGQPASISCRSSQSLVYSDGNTFLNWFQQRPGQSPRRLIYQVSNRDSGVPDRFSGSGSGTDFTLKISRVEAEDVGVYYCMQGTHWPRTFGQGTKLEIK
B7: COVA2-15 secretory IgA2 (antibody, V domains shown)
VH: QVQLLESGGGLVQPGGSLRLSCAASGFTFSSYAMSWVRQAPGKGLEWASAISGSGGSTYYADSVEGRFTISRDNSKNTLYLQMNSLRAEDTAVYYCAKDTGYCGDDCYIKLIRGGPDYWGQGTLVTVSS
VL: DIVMTQSPLSLPVTLGQPASISCRSSQSLVYSDGNTFLNWFQQRPGQSPRRLIYQVSNRDSGVPDRFSGSGSGTDFTLKISRVEAEDVGVYYCMQGTHWPRTFGQGTKLEIK
B8: COVA2-15 monomeric IgA2 (antibody, V domains shown)
VH: QVQLLESGGGLVQPGGSLRLSCAASGFTFSSYAMSWVRQAPGKGLEWASAISGSGGSTYYADSVEGRFTISRDNSKNTLYLQMNSLRAEDTAVYYCAKDTGYCGDDCYIKLIRGGPDYWGQGTLVTVSS
VL: DIVMTQSPLSLPVTLGQPASISCRSSQSLVYSDGNTFLNWFQQRPGQSPRRLIYQVSNRDSGVPDRFSGSGSGTDFTLKISRVEAEDVGVYYCMQGTHWPRTFGQGTKLEIK
B9: COVA2-15 secretory IgA1 (antibody, V domains shown)
VH: QVQLLESGGGLVQPGGSLRLSCAASGFTFSSYAMSWVRQAPGKGLEWASAISGSGGSTYYADSVEGRFTISRDNSKNTLYLQMNSLRAEDTAVYYCAKDTGYCGDDCYIKLIRGGPDYWGQGTLVTVSS
VL: DIVMTQSPLSLPVTLGQPASISCRSSQSLVYSDGNTFLNWFQQRPGQSPRRLIYQVSNRDSGVPDRFSGSGSGTDFTLKISRVEAEDVGVYYCMQGTHWPRTFGQGTKLEIK
B10: COVA2-15 monomeric IgA1 (antibody, V domains shown)
VH: QVQLLESGGGLVQPGGSLRLSCAASGFTFSSYAMSWVRQAPGKGLEWASAISGSGGSTYYADSVEGRFTISRDNSKNTLYLQMNSLRAEDTAVYYCAKDTGYCGDDCYIKLIRGGPDYWGQGTLVTVSS
VL: DIVMTQSPLSLPVTLGQPASISCRSSQSLVYSDGNTFLNWFQQRPGQSPRRLIYQVSNRDSGVPDRFSGSGSGTDFTLKISRVEAEDVGVYYCMQGTHWPRTFGQGTKLEIK

The target in the first test is T1, Wuhan-Hu-1 S protein on plant-produced virus-like particles (Severe acute respiratory syndrome …, UniProt P0DTC2).
T1 construct: also called SARS-CoV-2 VLPs (Wuhan variant)
The test is described as follows: ELISA. The following applies: both partners purified.
The term EC50 denotes the concentration needed to bring the measured effect to its halfway point. Read a low EC50 as greater potency. Molecule B1 showed a concentration giving a half-maximal response (EC50) of 0.032 nM. Take B2: the EC50 came out at 0.149 nM. For B3, the EC50 amounted to 0.01 nM. Still for that read-out and setting: the value for B4 was 0.054 nM; that for B5 was 0.017 nM.

A further test deals with T2, Wuhan-Hu-1 S protein on plant-produced virus-like particles (Severe acute respiratory syndrome …, UniProt P0DTC2).
T2 construct: also called Spike protein of the Wuhan variant on VLPs; Wuhan variant
Put plainly: ELISA. The following applies: both partners purified. For orientation: In an ELISA, binding on a coated surface is turned into a signal by an enzyme label.
B6 registered an EC50 of around 0.05 nM.

For the molecule B7, the EC50 was around 0.01 nM. Molecule B8 gave an EC50 of around 0.05 nM. The same measure, in the same setting: the value for B9 was around 0.01 nM; that for B10 was around 0.05 nM.
